Blank lines part the entries; values can stand above or below the molecule they belong to.
What was measured:
[1] = molecular target: IL-7 receptor (IL-7R) on PBMCs (UniProt P16871); experiment: cell-based or functional assay
CD40 on human B-cells = CD40 on human B-cells (human, UniProt P25942 21-277); experiment: cell-based or functional assay
Chain of CD40 on human B-cells (P25942 21-277): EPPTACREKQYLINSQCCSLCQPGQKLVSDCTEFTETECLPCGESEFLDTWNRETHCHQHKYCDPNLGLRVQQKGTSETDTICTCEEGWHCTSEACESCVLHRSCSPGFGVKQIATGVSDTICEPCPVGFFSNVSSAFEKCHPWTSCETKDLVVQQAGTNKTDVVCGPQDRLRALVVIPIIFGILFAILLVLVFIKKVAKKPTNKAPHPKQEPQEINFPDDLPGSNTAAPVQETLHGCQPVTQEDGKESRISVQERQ

Chain of IL-7 receptor (IL-7R) on PBMCs (P16871 21-459 limits assumed): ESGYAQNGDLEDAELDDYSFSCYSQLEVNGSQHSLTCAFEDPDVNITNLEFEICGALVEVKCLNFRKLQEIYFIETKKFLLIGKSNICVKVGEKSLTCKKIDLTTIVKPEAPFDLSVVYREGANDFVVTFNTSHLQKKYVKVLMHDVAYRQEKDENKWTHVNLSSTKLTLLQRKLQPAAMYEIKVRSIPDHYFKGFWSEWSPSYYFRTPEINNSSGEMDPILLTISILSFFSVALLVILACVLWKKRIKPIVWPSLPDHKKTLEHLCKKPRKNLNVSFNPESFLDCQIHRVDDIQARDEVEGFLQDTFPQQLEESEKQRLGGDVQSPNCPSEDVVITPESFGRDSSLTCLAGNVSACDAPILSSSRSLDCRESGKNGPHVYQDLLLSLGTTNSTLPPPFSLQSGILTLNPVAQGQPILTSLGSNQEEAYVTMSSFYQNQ

- IC50 (p/ml) of reduction of IL-7R levels on PBMCs [1]: 1.1e+11 p/ml
Molecule: IL-7 exosomes from the pDisplay plasmid encoding a fusion of IL-7 and PDGF Receptor (ligand)

- EC50 of B-cell activation (CD69 positivity on B-cells), ng/mL of CD40L (CD40 on human B-cells): 1.89 ng/mL
- EC50 of B-cell activation (CD69 positivity on B-cells), particles/mL (CD40 on human B-cells): 4.53e+08 particles/mL
Molecule: exosomes with trimeric CD40L-PTGFRN construct pCB-527 (PTGFRN-trimeric CD40L-GFP) (ligand)

More lines, now with the values behind:

Molecule: recombinant human CD40L (Biolegend, Catalog No. 591702) (from UniProt P29965 113-261) (ligand)
- EC50 of B-cell activation (CD69 positivity on B-cells), ng/mL of CD40L (CD40 on human B-cells): 28.5 ng/mL

B1: exosomes with trimeric CD40L-PTGFRN construct pCB-766 (tag-less, lacking the C-terminal GFP) (ligand)
chain: MQKGDQNPQIAAHVISEASSKTTSVLQWAEKGYYTMSNNLVTLENGKQLTVKRQGLYYIYAQVTFCSNREASSQAPFIASLCLKSPGRFERILLRAANTHSSAKPCGQQSIHLGGVFELQPGASVFVNVTDPSQVSHGTGFTSFGLLKLGSGGSGGSGGSGMQKGDQNPQIAAHVISEASSKTTSVLQWAEKGYYTMSNNLVTLENGKQLTVKRQGLYYIYAQVTFCSNREASSQAPFIASLCLKSPGRFERILLRAANTHSSAKPCGQQSIHLGGVFELQPGASVFVNVTDPSQVSHGTGFTSFGLLKLGSGGSGGSGGSGMQKGDQNPQIAAHVISEASSKTTSVLQWAEKGYYTMSNNLVTLENGKQLTVKRQGLYYIYAQVTFCSNREASSQAPFIASLCLKSPGRFERILLRAANTHSSAKPCGQQSIHLGGVFELQPGASVFVNVTDPSQVSHGTGFTSFGLLKLSAGGGGSGGGGSRVVRVPTATLVRVVGTELVIPCNVSDYDGPSEQNFDWSFSSLGSSFVELASTWEVGFPAQLYQERLQRGEILLRRTANDAVELHIKNVQPSDQGHYKCSTPSTDATVQGNYEDTVQVKVLADSLHVGPSARPPPSLSLREGEPFELRCTAASASPLHTHLALLWEVHRGPARRSVLALTHEGRFHPGLGYEQRYHSGDVRLDTVGSDAYRLSVSRALSADQGSYRCIVSEWIAEQGNWQEIQEKAVEVATVVIQPSVLRAAVPKNVSVAEGKELDLTCNITTDRADDVRPEVTWSFSRMPDSTLPGSRVLARLDRDSLVHSSPHVALSHVDARSYHLLVRDVSKENSGYYYCHVSLWAPGHNRSWHKVAEAVSSPAGVGVTWLEPDYQVYLNASKVPGFADDPTELACRVVDTKSGEANVRFTVSWYYRMNRRSDNVVTSELLAVMDGDWTLKYGERSKQRAQDGDFIFSKEHTDTFNFRIQRTTEEDRGNYYCVVSAWTKQRNNSWVKSKDVFSKPVNIFWALEDSVLVVKARQPKPFFAAGNTFEMTCKVSSKNIKSPRYSVLIMAEKPVGDLSSPNETKYIISLDQDSVVKLENWTDASRVDGVVLEKVQEDEFRYRMYQTQVSDAGLYRCMVTAWSPVRGSLWREAATSLSNPIEIDFQTSGPIFNASVHSDTPSVIRGDLIKLFCIITVEGAALDPDDMAFDVSWFAVHSFGLDKAPVLLSSLDRKGIVTTSRRDWKSDLSLERVSVLEFLLQVHGSEDQDFGNYYCSVTPWVKSPTGSWQKEAEIHSKPVFITVKMDVLNAFKYPLLIGVGLSTVIGLLSCLIGYCSSHWCCKKEVQETRRERRRLMSMEMD
- EC50 of B-cell activation (CD69 positivity on B-cells), ng/mL of CD40L (CD40 on human B-cells): 1.68 ng/mL
- EC50 of B-cell activation (CD69 positivity on B-cells), particles/mL (CD40 on human B-cells): 6.63e+08 particles/mL

Source: patent publication US20200407419A1 (LONZA SALES, published 2020)
